Holding throughout (type): cell-based
Experiment [1] concerns mouse intestinal organoids. As to the kind of experiment: RNAseq of intestinal organoids. The following applies: 2 days. On the procedure:
Total RNA was isolated using the RNeasy Plus Mini Kit (Qiagen, #74134) per manufacturer’s instructions. Total RNA was quantified with Qubit RNA HS Assay Kit (Thermo Fisher Scientific, #Q32852) and quality was assessed using RNA ScreenTape on 4200 TapeStation (Agilent Technologies, #5067-5576). cDNA library was generated from 2 ng of total RNA using Smart-Seq V4 Ultra Low Input RNA Kit (Takara, #634894). 150 pg of cDNA was used to make sequencing libraries by Nextera XT DNA Sample Preparation Kit (Illumina, #FC-131-1024). Libraries were quantified with Qubit dsDNA HS Assay Kit (Thermo Fisher Scientific, #Q32851) and the average library size was determined using D1000 ScreenTape on 4200 TapeStation (Agilent Technologies, #5067-5582). Libraries were pooled and sequenced on NovaSeq 6000 (Illumina) to generate 30 millions single-end 50-base pair reads for each sample.
Sequencing reads were filtered and aligned using HTSeqGenie v4.2.2. […] Reads within coding sequences were counted to determine an estimate of gene expression. Read counts were scaled by library size, quantile normalized and precision weights were calculated using the voom R package. […] Differential gene expression was calculated using voom+limma with multiple-hypothesis correction of P values performed using the Benjamini-Hochberg method. […]

Experiment [2] has as its system β-Catenin-dependent Wnt signaling (HEK293-TB cells). As to the kind of experiment: TOPbrite dual-luciferase Wnt reporter assay. The conditions noted are these: SF.3e. On the procedure:
Generation of HEK293 cells stably expressing a TOPbrite firefly luciferase Wnt reporter and pRL-SV40 Renilla luciferase (HEK293-TB) was previously described. HEK293-TB cells were maintained in DMEM/F12 (50:50), supplemented with 10% FBS, 2 mM Glutamax (Gibco, #35050-061) and 40 μg/ml hygromycin (Cellgro, #30-240-CR). For the luciferase reporter assay, HEK293-TB cells were seeded in 96-well plates (Falcon, #353377). The next day, cells were treated with indicated Wnt ligands (50 ng/ml) or CM diluted in culture media. After 24 h, the firefly and Renilla luciferase activity was measured using Dual-Glo Luciferase Assay system (Promega, #E2940) on a Perkin Elmer EnVision multilabel reader. The ratios of firefly luminescence to Renilla luminescence were calculated and normalized to control samples that were not treated.
(In general: A reporter such as luciferase makes a cellular process visible.)

The subject of experiment [3] is YAP in mouse intestinal organoids. As to the kind of experiment: whole mount immunostaining for YAP nuclear localization. On the procedure:
For whole mount staining, freshly passaged crypts were mixed with Matrigel (Corning, #356231) and mounted to µ-Slide 8 well chamber slides (ibidi, #80826). Media were changed every 2–3 d. 5 days later, organoids in the chamber slides were then fixed in 4% formaldehyde in PBS for 30 min, permeabilized with 0.5% Triton X-100 for 1 h, and incubated in blocking solution (3% normal donkey serum (Sigma-Aldrich, #566460) and 5% BSA (Sigma-Aldrich, #A7979) in 0.1% Triton X-100 + PBS) for 1 h. Primary and secondary antibodies were diluted in blocking solution and added to fixed organoids. Organoids were incubated with primary antibodies overnight at 4 °C and with secondary antibodies for 2 h. ProLong Diamond Antifade Mountant (Invitrogen, # P36970) was added. Images were acquired with a Yokogawa CSU-W1/Zeiss 3i Marianas spinning disk confocal microscopy system. For each organoid, Z-planes up to 100 μm with 1 or 1.5 μm z-steps were acquired to quantify the number of cell types.

In experiment [4] the test system is cytosolic Ca2+ in mouse intestinal organoids. As to the kind of experiment: live Ca2+ imaging of mouse intestinal organoids (GCaMP6f/tdTomato: baselined area under curve, peak number, height, width). The conditions noted are these: live organoids expressing GCaMP6f. The protocol:
Z stacks were acquired every 10 s.
Z-stack images were converted to mean intensity projections and, where required; background was subtracted using a rolling ball algorithm. Segmentation was conducted on a max-projection over-time of the GCaMP6f channel using Cellpose’s pre-trained “Cytoplasm” classifier. Mean intensity traces were measured in each ROI over the time course in both the GCaMP6f and TdTomato channels using scikit-image[138]. Ca^2+ oscillation patterns were calculated in an unsupervised, automated manner using MATLAB. Mean intensity traces were smoothed using a Savitzky-Golay filter and peaks were identified using the “findpeaks” algorithm from the MATLAB Signal Processing Toolbox. Graphs for GCaMP6f/tdTomato fluorescence ratio, peak numbers, peak height, peak width and baselined area under the curve were generated using Python matplotlib and seaborn packages. Statistical analysis was performed using Python SciPy and scikit-post-hoc packages.

Experiment [5] concerns mouse intestinal organoids. As to the kind of experiment: cystic organoid percentage, organoids treated with recombinant Wnt ligands (Wnt3a, Wnt5a, Wnt11). The conditions noted are these: for percentage of cystic organoids: Fig. 4e, individual mice, n = 3; for cystic organoids (sheet SF.5b): Wnt5a + DMSO, relative to Untreated = 0. The protocol:
(§1) The jejunum part of the small intestine was removed, flushed with PBS, opened longitudinally, then cut into 0.5 cm pieces. The collected tissues were washed with ice cold PBS multiple times by vortexing and incubated in PBS containing 2.5 mM EDTA for 5 min at 37 °C. After gentle shaking and aspiration, tissues were incubated in PBS containing 5 mM EDTA for 7 min at 37 °C. Tissues were then washed with PBS to remove EDTA and vigorously shaken to release crypts. The released crypts were passed through 70 μm strainers, washed with PBS, and pelleted by centrifugation at 200 × g. Resuspended crypts were mixed with Matrigel (Corning, #356231; Lot#8218007) and pipetted into culture plates. After mixture of crypts and Matrigel solidified, IntestiCult Organoid Growth Medium (Stem Cell Technologies, #06005; Lots #1000021927, #1000034230, #1000037372) was added. Seven days after seeding, organoids were resuspended in dissociation buffer (Gentle Cell Dissociation Reagent; Stem Cell Technologies, #07174), dissociated by pipetting, and seeded for experiments.
(§2) 3-4 biological replicates of organoids from different mice were used per condition. Organoids were cultured in the indicated media, inhibitors, antibodies and/or recombinant proteins for 5 d and fixed in 4% formaldehyde in PBS. Organoids were imaged with a 4× Plan Fluor objective (NA: 0.13, Nikon) on a Nikon Ti-E inverted microscope equipped with a Neo scMOS camera (Andor, Oxford Instruments), a linear encoded automated stage (Applied Scientific Instrumentation), all run by NIS Elements software (Nikon). Organoids were imaged in brightfield and images covering the whole well were stitched and focused into one image projection with an extended depth of focus module (EDF; Nikon). One hundred to 200 organoids per replicate per condition were counted and used for quantification. The number of budding organoids in each condition was normalized by the number of budding organoids in untreated or DMSO treated controls to calculate cystic organoid percentage:1 Cysticorganoidpercentage=100×1−Numberofbuddingorganoidsfromexperiment/Numberofbuddingorganoidsfromcontrol

The test system of experiment [6] is mouse intestinal organoids. Briefly: inhibition of Wnt5a-induced cystic organoids. The conditions noted are these: individual mice, n = 3. The protocol: as §1, §2

Values joined by “and” are separate entries in the source; they are usually repeats but may differ in a detail not shown here. Equal values may be shown once. “Also recorded” adds a separate entry of the source.

B1: Wnt5a: recombinant protein, R&D Systems 645-WN-010 (protein)
chain: IIGAQPLCSQLAGLSQGQKKLCHLYQDHMQYIGEGAKTGIKECQYQFRHRRWNCSTVDNTSVFGRVMQIGSRETAFTYAVSAAGVVNAMSRACREGELSTCGCSRAARPKDLPRDWLWGGCGDNIDYGYRFAKEFVDARERERIHAKGSYESARILMNLHNNEAGRRTVYNLADVACKCHGVSGSCSLKTCWLQLADFRKVGDALKEKYDSAAAMRLNSRGKLVQVNSRFNSPTTQDLVYIDPSPDYCVRNESTGSLGTQGRLCNKTSEGMDGCELMCCGRGYDQFKTVQTERCHCKFHWCCYVKCKKCTEIVDQFVCK
modifications: biotin
With B1, the “Ptk7-dependent DEGs with TEAD binding motifs” value in experiment [1] is recorded as “increased expression”. In addition, the “TOPbrite dual-luciferase Wnt reporter activity” value in experiment [2] (replicate 1) is 0.3121; in experiment [2] (replicate 2), 0.2591; in experiment [2] (replicate 3), 1.226; in experiment [2] (replicate 4), 1.185. Also, in experiment [3], the “effect on nuclear localization of YAP” value is given as “increased nuclear localization of YAP”. Also, in experiment [4], the “effect on cytosolic Ca2+ levels and oscillations” value was “cytosolic Ca^2+ levels and oscillations increased; also recorded: modulate cytosolic Ca^2+ oscillations”. Besides, the “percentage of cystic organoids” value in experiment [5] (Wnt5a 25 ng/ml) was 14.1026% and 5.06% and 6.32%; in experiment [5] (Wnt5a 50 ng/ml), 23.3312% and 3.761% and 10.619%; in experiment [5] (Wnt5a 100 ng/ml) it was 26.0174% and 31.7553% and 21.762%; in experiment [5] (Wnt5a 250 ng/ml) it was 40.092% and 41.2431% and 44.3989%; in experiment [5] (Wnt5a 500 ng/ml), 62.8247% and 56.8452% and 53.6325%; in experiment [6] (Fig. 4g, Wnt5a + DMSO), 46.8995% and 39.0061% and 36.0342%. Moreover, in experiment [6] (Fig. 4i, Wnt5a + IgG), the “percentage of cystic organoids” value is 49.9365% and 63.1809% and 67.3433%. For the same molecule, the “cystic organoids (sheet SF.5b)” value is reported as 22.713 in experiment [5] (replicate 1), 18.3144 in experiment [5] (replicate 2), 19.185 in experiment [5] (replicate 3) and 14.2949 in experiment [5] (replicate 4). Besides, the “cystic organoid size” value in experiment [5] (Wnt5a compared to Wnt3a) is “larger than those treated with Wnt3a”. Besides, the “induction of cystic organoids” value in experiment [5] (recombinant Wnt ligand added to crypt cultures) is recorded as “dose-dependently increased organoids with cystic morphology”.
